Columns and labels:
[1] = target: T1, human IL-1RAcP (residues 1-350) (human, UniProt Q9NPH3 21-350); assay: HDX-MS
T1 sequence (looked up): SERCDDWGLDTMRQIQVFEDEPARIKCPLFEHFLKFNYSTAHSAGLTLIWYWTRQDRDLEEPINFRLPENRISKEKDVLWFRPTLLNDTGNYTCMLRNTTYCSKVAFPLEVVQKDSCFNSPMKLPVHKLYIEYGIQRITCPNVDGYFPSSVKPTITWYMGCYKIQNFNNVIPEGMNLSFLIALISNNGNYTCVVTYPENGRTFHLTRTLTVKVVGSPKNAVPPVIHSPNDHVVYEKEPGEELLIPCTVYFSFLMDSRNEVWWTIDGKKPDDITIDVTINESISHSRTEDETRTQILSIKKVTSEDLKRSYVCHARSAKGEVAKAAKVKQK

[2] = target: T2, human IL-1RAcP (residues 1-350) fused to human IgG1-Fc (human, UniProt Q9NPH3 21-350); assay: SPR
T2 sequence (looked up): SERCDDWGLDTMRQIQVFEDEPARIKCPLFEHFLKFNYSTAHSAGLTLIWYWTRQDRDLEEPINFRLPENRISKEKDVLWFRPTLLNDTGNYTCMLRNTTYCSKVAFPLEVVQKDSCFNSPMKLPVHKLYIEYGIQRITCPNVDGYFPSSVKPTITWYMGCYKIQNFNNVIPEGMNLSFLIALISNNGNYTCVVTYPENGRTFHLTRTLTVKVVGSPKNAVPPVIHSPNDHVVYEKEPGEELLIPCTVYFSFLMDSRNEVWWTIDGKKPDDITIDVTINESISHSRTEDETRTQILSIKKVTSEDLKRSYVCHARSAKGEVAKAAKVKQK

half-life of the ternary complex (EX1 kinetics of IL-1RAcP(150-156)) [1]: 10 min
half-life of the ternary complex [2]: 26 min
B1: human IL-33:ST2 binary complex (complex)
chain 1: SITGISPITEYLASLSTYNDQSITFALEDESYEIYVEDLKKDEKKDKVLLSYYESQHPSNESGDGVDGKMLMVTLSPTKDFWLHANNKEHSVELHKCEKPLPDQAFFVLHNMHSNCVSFECKTDPGVFIGVKDNHLALIKVDSSENLCTENILFKLSET
chain 2: QTGKFSKQSWGLENEALIVRCPRQGKPSYTVDWYYSQTNKSIPTQERNRVFASGQLLKFLPAAVADSGIYTCIVRSPTFNRTGYANVTIYKKQSDCNVPDYLMYSTVSGSEKNSKIYCPTIDLYNWTAPLEWFKNCQALQGSRYRAHKSFLVIDNVMTEDAGDYTCKFIHNENGANYSVTATRSFTVKDEQGFSLFPVIGAPAQNEIKEVEIGKNANLTCSACFGKGTQFLAAVLWQLNGTKITDFGEPRIQQEEGQNQSFSNGLACLDMVLRIADVKEEDLLLQYDCLALNLHGLRRHTVRLSRK

— paper PMC5849085 (Immunity, 2017)
